# How the values were obtained:
# Test in all cases: SEC
# [1] = target: SARS-CoV-2 Beta Spike protein (B.1.351), tagless (SARS-CoV-2 | bacteriophage T4 (from the name T4 fibritin)) (UniProt P0DTC2)
# [2] = target: SARS-CoV-2 Delta Spike protein (B.1.617.2), tagless (SARS-CoV-2 | bacteriophage T4 (from the name T4 fibritin)) (UniProt P0DTC2)
# [3] = target: SARS-CoV-2 Gamma Spike protein (P.1), tagless (SARS-CoV-2 | bacteriophage T4 (from the name T4 fibritin)) (UniProt P0DTC2)
# [4] = target: SARS-CoV-2 D614G Spike protein, tagless (SARS-CoV-2 | bacteriophage T4 (from the name T4 fibritin)) (UniProt P0DTC2)
substance,measurement,setting,value
"SARS-CoV-2 Beta Spike protein (B.1.351), tagless (from UniProt P0DTC2 1-1208) (natural protein)",stoichiometry N,[1],3
"SARS-CoV-2 Delta Spike protein (B.1.617.2), tagless (from UniProt P0DTC2 1-1208) (natural protein)",stoichiometry N,[2],3
"SARS-CoV-2 Gamma Spike protein (P.1), tagless (from UniProt P0DTC2 1-1208) (natural protein)",stoichiometry N,[3],3
"SARS-CoV-2 D614G Spike protein, tagless (from UniProt P0DTC2 1-1208) (natural protein)",stoichiometry N,[4],3
